# Data from patent US20240270826A1 (NATIONAL RESEARCH COUNCIL OF CANADA, published 2024).
# B1: NRCoV2-05 VHH-Fc (Fc fusion)
# chain: EVKLVQSGGGLVQPGGSLRLSCAASGFIFSNYAMNWVRQAPGKGLEWVSGINSGGGDTRYADSVKGRFTVSRDNAKNTLYLQMNSLKPEDTGVYYCSKGPVSSYYGSGYDYRGQGTQVTVSS
# notes: bivalent VHH-Fc
# B2: NRCoV2-05 VHH-Fc (Fc fusion)
# chain: EVKLVQSGGGLVQPGGSLRLSCAASGFIFSNYAMNWVRQAPGKGLEWVSGINSGGGDTRYADSVKGRFTVSRDNAKNTLYLQMNSLKPEDTGVYYCSKGPVSSYYGSGYDYRGQGTQVTVSS
# notes: bivalent VHH-Fc
# B3: NRCoV2-SR13 VHH-Fc (Fc fusion)
# chain: EVQLVESGGGLVTTGGSLRLSCATSGSRFGSKHMAWYRQAPGKQRDLVAAISSGGSTHYGSSVKGRFTISRDNAKSTVYLQMNSLNPEDTAVFYCNMGGWDYRSNTYIPGSRSDYWGQGTQVTVSS
# notes: bivalent VHH-Fc
# B4: NRCoV2-10 VHH-Fc (Fc fusion)
# chain: QLQLQESGGGLVQPGGSLTLSCAASGNTFSRSNMHWYRQAPGAQREWVAAISSRGISTYAYSAKGRFTISRDNAKNTVSLQMNSLKPEDTAVYYCYAADDLGDYWGQGTQVTVSS
# notes: bivalent VHH-Fc
# B5: NRCoV2-10 VHH-Fc (Fc fusion)
# chain: QLQLQESGGGLVQPGGSLTLSCAASGNTFSRSNMHWYRQAPGAQREWVAAISSRGISTYAYSAKGRFTISRDNAKNTVSLQMNSLKPEDTAVYYCYAADDLGDYWGQGTQVTVSS
# notes: bivalent VHH-Fc
# B6: NRCoV2-SR02 VHH-Fc (Fc fusion)
# chain: EVQLVDSGGGLVQAGGSLRLSCTASEFTLNYYSIGWFRQSPGKEREGVSCIRYSGGGIDYADSVKGRFTISRDNAKNTVYLTMNSLKPEDTAVYYCAADRLYSRACPTAGGRNYWGQGTQVTVSS
# notes: bivalent VHH-Fc
# B7: NRCoV2-MRed05 VHH-Fc (Fc fusion)
# chain: EVQLVESGGGLVQPGGSLRLSCAASGFTLDYYAIGWFRQAPGKEREGVSCISSSDGSTLYADSVKGRFTISRDNAKNTVYLQMNSLKPEDTAVYYCATGPQAYYSGSYYFQCPQAGMDYWGKGTQVTVSS
# notes: bivalent VHH-Fc
# B8: NRCoV2-MRed05 VHH-Fc (Fc fusion)
# chain: EVQLVESGGGLVQPGGSLRLSCAASGFTLDYYAIGWFRQAPGKEREGVSCISSSDGSTLYADSVKGRFTISRDNAKNTVYLQMNSLKPEDTAVYYCATGPQAYYSGSYYFQCPQAGMDYWGKGTQVTVSS
# notes: bivalent VHH-Fc
# B9: NRCoV2-14 VHH-Fc (Fc fusion)
# chain: EVQLVSSGGGLVQAGGSLRLSCEASGTTFSHYAVGWYRQAPGKQREWVASISVFGSTTYGGSVAGRFTISRDNDKNTVDLQMNSLKPEDTAVYYCHAVNADIGGDYWGQGTQVTVSS
# notes: bivalent VHH-Fc
# B10: NRCoV2-14 VHH-Fc (Fc fusion)
# chain: EVQLVSSGGGLVQAGGSLRLSCEASGTTFSHYAVGWYRQAPGKQREWVASISVFGSTTYGGSVAGRFTISRDNDKNTVDLQMNSLKPEDTAVYYCHAVNADIGGDYWGQGTQVTVSS
# notes: bivalent VHH-Fc
# B11: NRCoV2-15 VHH-Fc (Fc fusion)
# chain: EVQLVSSGGGLVEAGGSLRLSCIASGSTSGRNTMGWFRQAPGKQREWVAIVSTSGATNYAGSVKGRFTLSRDNAKNAVYLQMNNLKPEDTAVYYCYAAYGGGGDYWGQGTQVTVSS
# notes: bivalent VHH-Fc
# B12: NRCoV2-15 VHH-Fc (Fc fusion)
# chain: EVQLVSSGGGLVEAGGSLRLSCIASGSTSGRNTMGWFRQAPGKQREWVAIVSTSGATNYAGSVKGRFTLSRDNAKNAVYLQMNNLKPEDTAVYYCYAAYGGGGDYWGQGTQVTVSS
# notes: bivalent VHH-Fc
# B13: NRCoV2-MRed07 VHH (VHH)
# VHH: EVQLVESGGGLVQPGGSLTLSCAASGSIGPFNTMGWYRQAPGNQREPAAIITRGGVTNYADSVKGRFTISRDNAKNAVYLQMDSLKPDDTAVYYCYANYGWAIPYWGNGTQVTVSS
# B14: NRCoV2-MRed06 VHH (VHH)
# VHH: EVQLVESGGGLVQAGGSLRLSCAASGFTLAYYAIGWFRQAPGKEREGVSCISSSDGSAHYADSVKGRFTISRDNAKNTVSLQMNSLKPEDTAVYYCATDSFSSCSDYESGMDFWGKGTQVTVSS
# B15: NRCoV2-04 VHH-Fc (Fc fusion)
# chain: AVQLVDSGGGLVQPGGSLRLSCAASGSPFSNVVMAWYRQAPGKQRERVAFISGGGIADYIMSVKGRFTISRDNAKNTVYLQMNSLKPEDTAVYYCWSSYESTWGQGTQVTVSS
# notes: bivalent VHH-Fc
# B16: NRCoV2-02 VHH-Fc (Fc fusion)
# chain: EVQLVESGGGLVQAGGSLRLSCAASGFTFSNYAMNWVRQAPGKGLEWVSGISGRGDDTRYADSVKGRFTISRDNAKNTLFLQMRSLRPEDTGVYRCTKGPDLYYFGSGYSDRGQGTQVTVSS
# notes: bivalent VHH-Fc
# B17: NRCoV2-1d VHH-Fc (Fc fusion)
# chain: EVQLVESGGGSVQPGGSLRLSCAASGSTLDYYAIGWFRQAPGKEREWVSSVSSSDGNTLYADSVKGRFTISRDNAKNTVYLQMNSLKAEDTAVYVCAADYSMRPFAVGRWHRDYEYWGQGTQVTVSS
# notes: bivalent VHH-Fc
# B18: NRCoV2-17 VHH-Fc (Fc fusion)
# chain: EVQLQQSGGGLVQTGGSLRLSCAAAGSPFSQLAMSWYRQISGKERAWVASISPTGNRSYSKIAKGRFTISRDNAKNTVTLQMTSLKPEDTAAYICQAANVNGGDYWGQGTQVTVSS
# notes: bivalent VHH-Fc
# B19: NRCoV2-17 VHH-Fc (Fc fusion)
# chain: EVQLQQSGGGLVQTGGSLRLSCAAAGSPFSQLAMSWYRQISGKERAWVASISPTGNRSYSKIAKGRFTISRDNAKNTVTLQMTSLKPEDTAAYICQAANVNGGDYWGQGTQVTVSS
# notes: bivalent VHH-Fc
# B20: NRCoV2-MRed04 VHH-Fc (Fc fusion)
# chain: EVQLVESGGGLVQPGRSLRLSCAASGNSFSISTMGWFRQAPGKERELVASIWSDTTTSYADSVKGRFTISTDNTRTKVYLQMSSLNPEDTAVYYCAADRGFVVRGQYDYWGQGTQVTVSS
# notes: bivalent VHH-Fc
# B21: NRCoV2-MRed03 VHH (VHH)
# VHH: EVQLVESGGGLVQPGGSLRLSCAAIGFTLDYYAIGWFRQAPGKEREGVSCISSSDGSTYYADSVKGRFTISRDNAKNTVYLQMNSLKPEDTAVYYCATDAFATCDSWYAQIAQYDFRGQGTQVTVSS
# What was measured:
# [1] = biological target: Human SARS-CoV-2_Wuhan S (SmT1) (SARS-CoV-2 (Wuhan), UniProt P0DTC2 14-1208); experiment: flow cytometry SVNA, VHH-Fc vs biotin-S binding to Vero E6 ACE2
# [2] = biological target: SARS-CoV-2 spike protein S on live virus, Wuhan (strain SARS-CoV-2/Canada/VIDO-01/2020) (SARS-CoV-2 (Wuhan), UniProt P0DTC2 14-1273); experiment: cell-based or functional assay
# [3] = biological target: Human SARS-CoV-2_Wuhan S (SmT1) (SARS-CoV-2 (Wuhan), UniProt P0DTC2 14-1208); experiment: flow cytometry SVNA: VHH-Fc inhibits S binding to ACE2 on Vero E6 cells
# [4] = biological target: T1, SARS-CoV-2 S1 (aa16-685) (Wuhan) (SARS-CoV-2 Wuhan, UniProt P0DTC2 16-685); experiment: SPR, antigen on chip
# T1 construct: NRC; FLAG, 6xHis tags
# [5] = biological target: T2, SARS-CoV-2 S2 (aa686-1208) (Wuhan) (SARS-CoV-2 Wuhan, UniProt P0DTC2 686-1208); experiment: SPR, antigen on chip
# T2 construct: NRC; FLAG, 6xHis tags
# [6] = biological target: T3, SARS-CoV-2 spike trimer S (Wuhan, SmT1) (SARS-CoV-2 Wuhan); experiment: SPR, antigen on chip
# T3 construct: extracellular domain
Binder,IC50 [1],IC99 [1],Imax % [1],LVNA IC50 [2],IC50 [3],further results
B1,6.7 nM,37 nM,95%,0.0008 nM,,
B2,,,,,4.9 nM,
B3,23.8 nM,1970 nM,82%,~100 nM,,
B4,7.7 nM,77.3 nM,91%,1.28 nM,,
B5,,,,,8.8 nM,
B6,,,,,1.7 nM,
B7,6.1 nM,36.3 nM,95%,0.17 nM,,
B8,,,,,4.3 nM,
B9,9.9 nM,160 nM,83%,3.1 nM,,
B10,,,,,7.5 nM,
B11,8.1 nM,71.5 nM,95%,0.73 nM,,
B12,,,,,5.8 nM,
B13,,,,,,Kd [4]: 0.378 nM; koff [4]: 0.000427 s⁻¹; kon [4]: 1.13e+06 M⁻¹ s⁻¹; binding result [5]: no binding; Kd [6]: 0.236 nM; koff [6]: 0.000378 s⁻¹; kon [6]: 1.6e+06 M⁻¹ s⁻¹
B14,,,,,,Kd [4]: 4.22 nM; koff [4]: 0.00157 s⁻¹; kon [4]: 371000 M⁻¹ s⁻¹; binding result [5]: no binding; Kd [6]: 4.8 nM; koff [6]: 0.000887 s⁻¹; kon [6]: 185000 M⁻¹ s⁻¹
B15,,,,,10.8 nM,
B16,,,,,4.7 nM,
B17,,,,,4.7 nM,
B18,8.6 nM,101 nM,88%,2.82 nM,,
B19,,,,,8.6 nM,
B20,4.6 nM,262 nM,73%,9.61 nM,,
B21,,,,,,Kd [4]: 0.223 nM; koff [4]: 6.15e-05 s⁻¹; kon [4]: 276000 M⁻¹ s⁻¹; binding result [5]: no binding; Kd [6]: 0.52 nM; koff [6]: 8.14e-05 s⁻¹; kon [6]: 157000 M⁻¹ s⁻¹
